# Source: patent US20150056208A1 (VILARA, published 2015)
# Where no end group is shown, it is not given here. [ ]: non-standard residue; d: D form. Cit = NC(=O)NCCC[C@H](N)C(=O)O
# T1: citrullinated human vimentin residues 60-75 (cit-vim) (human, also: biotinylated, place not given here)
# T1 construct: Biotinylated peptide on streptavidin plates (ELISA) or CAP chip (SPR); also called Vim60-75; cit vimentin
# T1 peptide: VYAT[Cit]SSAV[Cit]L[Cit]SSVP
# T2: citrullinated human fibrinogen residues 36-52 (cit-fib) (human, also: biotinylated, place not given here)
# T2 construct: Biotinylated peptide on streptavidin plates (ELISA) or CAP chip (SPR); also called Fib36-52; cit fibrinogen
# T2 peptide: NEEGFFSA[Cit]GHRPLDKK
# T3: citrullinated human enolase peptide 1 (CEP-1) (human, cysteine pairing not given here; also: biotinylated form used in SPR, place not given here)
# T3 construct: Coated directly on plates in ELISA; biotinylated and captured on a CAP chip in SPR; also called cit a-enolase; citrullinated alpha-enolase peptide 1
# T3 peptide: CKIHA[Cit]EIFDS[Cit]GNPTVEC
# B1: antibody A09 (antibody)
# chain 1: KSRTEIHSRVCGGHRAQLQGQLALGRVNGYGDSTLEGRVVVNAPTKVDNPNRLQPLPWGLADPHPVVTIIPNGASRDSAGEGQGLRRLHQSW
# chain 2: GPLSDLINDDFGGFAWVLLVPGDKSITHNITAACSAGDGDRLSRRPRHGGRLSQHRL
# Legend:
# Assay in all cases: SPR, peptide on CAP chip, 1:1 fit
# [1] = biological target: T1, citrullinated human vimentin residues …
# [2] = biological target: T2, citrullinated human fibrinogen residues …
# [3] = biological target: T3, citrullinated human enolase peptide 1 …
binder,measurement,setting,value
B1,Kd,[1],180 nM
same,koff,[1],0.0433 s⁻¹
same,Kd,[2],160 nM
same,koff,[2],0.0291 s⁻¹
same,koff,[3],0.0429 s⁻¹
